Measurements taken from patent publication US20210088514A1 (ACADEMIA SINICA, published 2021).

Target: T1, epithelial cell adhesion molecule (EpCAM) (UniProt P16422 24-314, limits assumed)
T1 construct: whole, on cells; also called EpCAM membrane protein
T1 sequence (looked up): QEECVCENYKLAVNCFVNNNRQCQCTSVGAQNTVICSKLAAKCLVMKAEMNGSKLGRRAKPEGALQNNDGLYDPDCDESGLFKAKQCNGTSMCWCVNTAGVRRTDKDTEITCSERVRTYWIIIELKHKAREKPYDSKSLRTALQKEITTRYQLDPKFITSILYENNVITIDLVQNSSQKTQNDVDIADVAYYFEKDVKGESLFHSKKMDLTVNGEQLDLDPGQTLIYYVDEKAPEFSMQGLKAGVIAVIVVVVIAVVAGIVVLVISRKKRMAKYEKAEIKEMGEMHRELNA
Assay: capture of HCT116 and SAS cells on antibody surface coating, colorimetric read-out at OD 490 nm
Protocol: The binding specificity of biotinylated OC9801 antibody, biotinylated EpAb4-1 antibody and biotinylated EpCam antibody (commercially available from R&D system, USA) were examined using the HCT116 (colorectal) CTCs and SAS (tongue) CTCs.
The CTC binding specificy of the antibodies was determined by colorimetric method, by measuring the absorption optical density at 490 nm.

B1: biotinylated EpAb4-1 antibody (antibody, V domains shown)
VH: QIQLVQSGPELKKPGETVKISCKASGYTFTNYGMNWVKQAPGKGLKWMGWINTYTGEPTYGDDFKGRFAFSLETSASTAYLQINNLKNEDTATYFCARFGRSVDFWGQGTSVTVSS
VL: DIVMTQAAFSNPVTLGTSASISCRSSKSLLHSNGITYLYWYLQKPGQSPQLLIYHMSNLASGVPDRFSSSGSGTDFTLRISRVEAEDVGIYYCAQNLENPRTFGGGTKLEIK
modifications: biotinylated with Sulfo NHS-LC-Biotin; ratio of biotin and antibody 1.5 to 1; sites not stated
notes: Immobilised through streptavidin on the surface coating in the assay; also called bEpAb4-1; biotinylated anti-EpCam antibody
B1: binds.
